The source of these data is patent publication US20060233832A1 (Rhein Biotech Gesellschaft Fur Neue Biotechnologische …, published 2006).

The test deals with Affinity-purified MHC class I molecules K^b with human β2m (mouse (H-2^b); human).

Usually IC50 stands for the concentration that gives 50% inhibition. High values mean a need for much substance, low ones inhibition by little substance. As to IVSPFIPL [K^b/S208-215-binding peptide 1 of HBsAgadw2 (IVSPFIPL)], the IC50 came out at 773 nM.
